Test results from the supplement of paper PMC5998384.

Key:
[1] = test system: HeLa Kyoto; experiment: thermal stability score vs G1/S (z-score of summed log2 fold changes over temperatures); higher = more thermally stable than in G1/S
[2] = test system: HeLa Kyoto; experiment: melting temperature (median over replicates), in situ; higher = more thermally stable
[3] = test system: HeLa Kyoto; experiment: solubility change mitosis vs G1/S (difference of NP-40 vs SDS log2 ratios) (log2 ratio difference); higher = more soluble in mitosis
[4] = test system: HeLa Kyoto; experiment: solubility in G1/S (NP-40 vs SDS abundance) (log2 ratio); higher = more soluble; conditions: cell cycle stage: G1/S
[5] = cell cycle stage: early G1 (4.5 h after nocodazole release)
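For melting temperature (median over replicates), in situ in this document: HeLa Kyoto cells synchronized by double thymidine or nocodazole block, proteins quantified by TMT10plex mass spectrometry, three independent biological replicates.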
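For solubility change mitosis vs G1/S (difference of NP-40 vs SDS log2 ratios) in this document: synchronized HeLa Kyoto cells (double thymidine block for G1/S, nocodazole release for mitosis), protein amounts in NP-40 versus SDS lysates quantified by mass spectrometry, three biological replicates.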
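For solubility in G1/S (NP-40 vs SDS abundance) in this document: HeLa Kyoto cells arrested at G1/S by double thymidine block, proteins quantified by TMT10plex mass spectrometry in mild NP-40 versus SDS extracts, three biological replicates.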
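For thermal stability score vs G1/S (z-score of summed log2 fold changes over temperatures) in this document: synchronized HeLa Kyoto cells, proteins quantified by TMT10plex mass spectrometry, three biological replicates, mitosis taken 0.5 h after nocodazole release, G1/S directly after double thymidine block.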

Substance | thermal stability score [1, 5] | thermal stability score ([1]; cell cycle stage: mitosis) | melting temperature ([2]; cell cycle stage: G1/S) [°C] | melting temperature ([2]; cell cycle stage: mitosis) [°C] | solubility change mitosis (log2) [3] | solubility in G1/S (log2) [4]
MPPAVGGPVGYTPPDGGWGWAVVIGAFISIGFSYAFPKSITVFFKEIEGIFHATTSEVSWISSIMLAVMYGGGPISSILVNKYGSRIVMIVGGCLSGCGLIAASFCNTVQQLYVCIGVIGGLGLAFNLNPALTMIGKYFYKRRPLANGLAMAGSPVFLCTLAPLNQVFFGIFGWRGSFLILGGLLLNCCVAGALMRPIGPKPTKAGKDKSKASLEKAGKSGVKKDLHDANTDLIGRHPKQEKRSVFQTINQFLDLTLFTHRGFLLYLSGNVIMFFGLFAPLVFLSSYGKSQHYSSEKSAFLLSILAFVDMVARPSMGLVANTKPIRPRIQYFFAASVVANGVCHMLAPLSTTYVGFCVYAGFFGFAFGWLSSVLFETLMDLVGPQRFSSAVGLVTIVECCPVLLGPPLLGRLNDMYGDYKYTYWACGVVLIISGIYLFIGMGINYRLLAKEQKANEQKKESKEEETSIDVAGKPNEVTKAAESPDQKDTDGGPKEEESPV [SLC16A1] | -4.15 | -10.4 | 55 | 57 | -0.115 | 0.186
MPTESASCSTARQTKQKRKSHSLSIRRTNSSEQERTGLPRDMLEGQDSKLPSSVRSTLLELFGQIEREFENLYIENLELRREIDTLNERLAAEGQAIDGAELSKGQLKTKASHSTSQLSQKLKTTYKASTSKIVSSFKTTTSRAACQLVKEYIGHRDGIWDVSVAKTQPVVLGTASADHTALLWSIETGKCLVKYAGHVGSVNSIKFHPSEQLALTASGDQTAHIWRYAVQLPTPQPVADTSISGEDEVECSDKDEPDLDGDVSSDCPTIRVPLTSLKSHQGVVIASDWLVGGKQAVTASWDRTANLYDVETSELVHSLTGHDQELTHCCTHPTQRLVVTSSRDTTFRLWDFRDPSIHSVNVFQGHTDTVTSAVFTVGDNVVSGSDDRTVKVWDLKNMRSPIATIRTDSAINRINVCVGQKIIALPHDNRQVRLFDMSGVRLARLPRSSRQGHRRMVCCSAWSEDHPVCNLFTCGFDRQAIGWNINIPALLQEK [WDR37] | -0.8 | -0.627 | 53.3 |  | -0.117 | 0.0178
MAVVIRLLGLPFIAGPVDIRHFFTGLTIPDGGVHIIGGEIGEAFIIFATDEDARRAISRSGGFIKDSSVELFLSSKAEMQKTIEMKRTDRVGRGRPGSGTSGVDSLSNFIESVKEEASNSGYGSSINQDAGFHTNGTGHGNLRPRKTRPLKAENPYLFLRGLPYLVNEDDVRVFFSGLCVDGVIFLKHHDGRNNGDAIVKFASCVDASGGLKCHRSFMGSRFIEVMQGSEQQWIEFGGNAVKEGDVLRRSEEHSPPRGINDRHFRKRSHSKSPRRTRSRSPLGFYVHLKNLSLSIDERDLRNFFRGTDLTDEQIRFLYKDENRTRYAFVMFKTLKDYNTALSLHKTVLQYRPVHIDPISRKQMLKFIARYEKKRSGSLERDRPGHVSQKYSQEGNSGQKLCIYIRNFPFDVTKVEVQKFFADFLLAEDDIYLLYDDKGVGLGEALVKFKSEEQAMKAERLNRRRFLGTEVLLRLISEAQIQEFGVNFSVMSSEKMQARSQSRERGDHSHLFDSKDPPIYSVGAFENFRHQLEDLRQLDNFKHPQRDFRQPDRHPPEDFRHSSEDFRFPPEDFRHSPEDFRRPREEDFRRPSEEDFRRPWEEDFRRPPEDDFRHPREEDWRRPLEEDWRRPLEEDFRRSPTEDFRQLPEEDFRQPPEEDLRWLPEEDFRRPPEEDWRRPPEEDFRRPLQGEWRRPPEDDFRRPPEEDFRHSPEEDFRQSPQEHFRRPPQEHFRRPPPEHFRRPPPEHFRRPPPEHFRRPPPEHFRRPPPEHFRRPPPEHFRRPPQEHFRRPPQEHFRRSREEDFRHPPDEDFRGPPDEDFRHPPDEDFRSPQEEDFRCPSDEDFRQLPEEDLREAPEEDPRLPDNFRPPGEDFRSPPDDFRSHRPFVNFGRPEGGKFDFGKHNMGSFPEGRFMPDPKINCGSGRVTPIKIMNLPFKANVNEILDFFHGYRIIPDSVSIQYNEQGLPTGEAIVAMINYNEAMAAIKDLNDRPVGPRKVKLTLL [RBM12B] | 0.194 | 1.05 | 47.6 | 49.7 | 0.191 | -0.972
MSEAGGRGCGSPVPQRARWRLVAATAAFCLVSATSVWTAGAEPMSREEKQKLGNQVLEMFDHAYGNYMEHAYPADELMPLTCRGRVRGQEPSRGDVDDALGKFSLTLIDSLDTLVVLNKTKEFEDAVRKVLRDVNLDNDVVVSVFETNIRVLGGLLGGHSLAIMLKEKGEYMQWYNDELLQMAKQLGYKLLPAFNTTSGLPYPRINLKFGIRKPEARTGTETDTCTACAGTLILEFAALSRFTGATIFEEYARKALDFLWEKRQRSSNLVGVTINIHTGDWVRKDSGVGAGIDSYYEYLLKAYVLLGDDSFLERFNTHYDAIMRYISQPPLLLDVHIHKPMLNARTWMDALLAFFPGLQVLKGDIRPAIETHEMLYQVIKKHNFLPEAFTTDFRVHWAQHPLRPEFAESTYFLYKATGDPYYLEVGKTLIENLNKYARVPCGFAAMKDVRTGSHEDRMDSFFLAEMFKYLYLLFADKEDIIFDIEDYIFTTEAHLLPLWLSTTNQSISKKNTTSEYTELDDSNFDWTCPNTQILFPNDPLYAQSIREPLKNVVDKSCPRGIIRVEESFRSGAKPPLRARDFMATNPEHLEILKKMGVSLIHLKDGRVQLVQHAIQAASSIDAEDGLRFMQEMIELSSQQQKEQQLPPRAVQIVSHPFFGRVVLTAGPAQFGLDLSKHKETRGFVASSKPSNGCSELTNPEAVMGKIALIQRGQCMFAEKARNIQNAGAIGGIVIDDNEGSSSDTAPLFQMAGDGKDTDDIKIPMLFLFSKEGSIILDAIREYEEVEVLLSDKAKDRDPEMENEEQPSSENDSQNQSGEQISSSSQEVDLVDQESSEENSLNSHPESLSLADMDNAASISPSEQTSNPTENHETTNLNGECTDLDNQLQEQSETEEDSNPNVSWGKKVQPIDSILADWNEDIEAFEMMEKDEL [EDEM3] | 0.67 | 0.929 | 53.5 | 53.7 | -0.156 | 0.311
MATEQRPFHLVVFGASGFTGQFVTEEVAREQVDPERSSRLPWAVAGRSREKLQRVLEKAALKLGRPTLSSEVGIIICDIANPASLDEMAKQATVVLNCVGPYRFYGEPVIKACIENGASCIDISGEPQFLELMQLKYHEKAADKGVYIIGSSGFDSIPADLGVIYTRNKMNGTLTAVESFLTIHSGPEGLSIHDGTWKSAIYGFGDQSNLRKLRNVSNLKPVPLIGPKLKRRWPISYCRELKGYSIPFMGSDVSVVRRTQRYLYENLEESPVQYAAYVTVGGITSVIKLMFAGLFFLFFVRFGIGRQLLIKFPWFFSFGYFSKQGPTQKQIDAASFTLTFFGQGYSQGTGTDKNKPNIKICTQVKGPEAGYVATPIAMVQAAMTLLSDASHLPKAGGVFTPGAAFSKTKLIDRLNKHGIEFSVISSSEV [SCCPDH] | 0.42 | -2.32 | 53.2 | 54 | 0.0063 | -0.086
MEGDAVEAIVEESETFIKGKERKTYQRRREGGQEEDACHLPQNQTDGGEVVQDVNSSVQMVMMEQLDPTLLQMKTEVMEGTVAPEAEAAVDDTQIITLQVVNMEEQPINIGELQLVQVPVPVTVPVATTSVEELQGAYENEVSKEGLAESEPMICHTLPLPEGFQVVKVGANGEVETLEQGELPPQEDPSWQKDPDYQPPAKKTKKTKKSKLRYTEEGKDVDVSVYDFEEEQQEGLLSEVNAEKVVGNMKPPKPTKIKKKGVKKTFQCELCSYTCPRRSNLDRHMKSHTDERPHKCHLCGRAFRTVTLLRNHLNTHTGTRPHKCPDCDMAFVTSGELVRHRRYKHTHEKPFKCSMCDYASVEVSKLKRHIRSHTGERPFQCSLCSYASRDTYKLKRHMRTHSGEKPYECYICHARFTQSGTMKMHILQKHTENVAKFHCPHCDTVIARKSDLGVHLRKQHSYIEQGKKCRYCDAVFHERYALIQHQKSHKNEKRFKCDQCDYACRQERHMIMHKRTHTGEKPYACSHCDKTFRQKQLLDMHFKRYHDPNFVPAAFVCSKCGKTFTRRNTMARHADNCAGPDGVEGENGGETKKSKRGRKRKMRSKKEDSSDSENAEPDLDDNEDEEEPAVEIEPEPEPQPVTPAPPPAKKRRGRPPGRTNQPKQNQPTAIIQVEDQNTGAIENIIVEVKKEPDAEPAEGEEEEAQPAATDAPNGDLTPEMILSMMDR [CTCF] | -1.57 | -1.93 | 55.5 | 54.4 | 0.0343 | -0.451
DOCK7 | 0.562 | 1.42 | 48.2 | 49 | -0.188 | -0.219
MGQIEWAMWANEQALASGLILITGGIVATAGRFTQWYFGAYSIVAGVFVCLLEYPRGKRKKGSTMERWGQKYMTAVVKLFGPFTRNYYVRAVLHLLLSVPAGFLLATILGTACLAIASGIYLLAAVRGEQWTPIEPKPRERPQIGGTIKQPPSNPPPRPPAEARKKPSEEEAAVAAGGPPGGPQVNPIPVTDEVV [CYBA] | -0.561 | -1.21 | 54.8 | 54 | -0.167 | 0.005
